# Reference: patent US20140094415A1
# Read-outs that look alike come from different tables or passages of the source. Where no end group is shown, it is not given here.
# Key:
# [1] = molecular target: T1, HIS-PDZ1-2 protein (PSD-95 PDZ1-2 tandem) (human), P78352; assay: fluorescence polarization, saturation binding: increasing PDZ1-2 on 0.5 nM probe
# [2] = molecular target: T1, HIS-PDZ1-2 protein (PSD-95 PDZ1-2 …); assay: fluorescence polarization, heterologous competition against AB143 probe
# [3] = molecular target: T1, HIS-PDZ1-2 protein (PSD-95 PDZ1-2 …); assay: as above; remark: listed apart in the source
Kd [1] [nM],Ki [2] [nM],Ki [3] [nM],Binder
7.8,–,–,"IETAV (also: dimer: two IETAV chains on NPEG4 scaffold, 5-FAM label, position not given here) [5-FAM-labeled NPEG4(IETAV)2 probe, AB143]"
–,9.3,9.5,IETAV (modifications not checked) [NPEG4(IETAV)2 (AB141)]
–,–,9.5,IETAV (modifications not checked) [PEG4(IETAV)2 (AB125)]
